Data as given in the Human Domainome abundance scans (Beltran et al. 2025).
± gives the uncertainty stated by the source.

B1: Far upstream element-binding protein 2, residues 142 to 214; numbered along this chain, Q92945 (parent)
chain: RTSMTEEYRVPDGMVGLIIGRGGEQINKIQQDSGCKVQISPDSGGLPERSVSLTGAPESVQKAKMMLDDIVSR

Variants of: B1
Assay: abundance fitness (aPCA) (normalised: wild type 0, dead -1); higher = more abundant; growth selection in yeast, the domain comes from the species named
Settings: Homo sapiens

Row | Variant | abundance fitness
1 | S72F | -0.176 ± 0.075
2 | S72M | -0.024 ± 0.06
3 | S72D | -0.032 ± 0.061
4 | V15Y | -0.197 ± 0.092
5 | V15H | -0.214 ± 0.1
6 | V15P | -0.462 ± 0.064
7 | V15D | -0.217 ± 0.081
8 | G23F | -0.3 ± 0.11
9 | G23Q | -0.126 ± 0.064
10 | G23R | -0.11 ± 0.039
11 | G23W | -0.32 ± 0.051
12 | G23S | -0.178 ± 0.05
13 | R21D | 0.133 ± 0.055
14 | R21S | 0.02 ± 0.039
15 | R21V | -0.068 ± 0.037
16 | R21E | 0.088 ± 0.04
17 | R21W | -0.353 ± 0.045
18 | I39Q | -0.543 ± 0.064
19 | I39K | -0.701 ± 0.087
20 | I39N | -0.578 ± 0.11
21 | G55Y | -0.878 ± 0.19
22 | G55A | -0.882 ± 0.064
23 | G55P | -0.937 ± 0.087
24 | P57R | -0.141 ± 0.039

Row | Variant | abundance fitness
25 | P57D | -0.609 ± 0.091
26 | P57W | -0.24 ± 0.059
27 | P57Y | -0.402 ± 0.099
28 | G22C | -0.204 ± 0.057
29 | G22K | -0.12 ± 0.07
30 | G22D | -0.027 ± 0.066
31 | G22N | -0.167 ± 0.1
32 | G22V | -0.312 ± 0.047
33 | G22S | -0.148 ± 0.047
34 | G22I | -0.34 ± 0.082
35 | G22A | -0.126 ± 0.045
36 | G22L | -0.234 ± 0.044
37 | P11M | -0.375 ± 0.064
38 | P11D | -0.122 ± 0.061
39 | P11A | -0.131 ± 0.047
40 | P11Q | -0.221 ± 0.058
41 | Q38Y | 0.027 ± 0.097
42 | Q38F | -0.075 ± 0.12
43 | Q38N | -0.025 ± 0.082
44 | Q38H | 0.095 ± 0.078
45 | Q38A | 0.02 ± 0.044
46 | Y8L | -0.089 ± 0.039
47 | Y8H | -0.12 ± 0.067
48 | Y8W | -0.007 ± 0.041

Row | Variant | abundance fitness
49 | Y8V | -0.057 ± 0.038
50 | L67T | -0.562 ± 0.059
51 | L67H | -0.564 ± 0.084
52 | T5P | -0.62 ± 0.047
53 | T5H | -0.235 ± 0.054
54 | T5V | -0.154 ± 0.041
55 | Q61W | -0.176 ± 0.058
56 | Q61E | 0.01 ± 0.06
57 | Q61M | -0.051 ± 0.064
58 | Q61V | -0.102 ± 0.049
59 | Q61F | -0.106 ± 0.074
60 | Q61S | -0.06 ± 0.051
61 | Q61N | 0.016 ± 0.12
62 | P47N | -0.13 ± 0.096
63 | P47S | -0.021 ± 0.049
64 | P47W | -0.32 ± 0.059
65 | P47G | 0.002 ± 0.048
66 | P47R | -0.104 ± 0.043
67 | P47T | -0.018 ± 0.057
68 | P47E | -0.06 ± 0.06
69 | P47D | -0.002 ± 0.072
70 | P47K | -0.016 ± 0.069
71 | M4Q | 0.057 ± 0.054
72 | M4R | -0.079 ± 0.037

Row | Variant | abundance fitness
73 | M4D | -0.106 ± 0.072
74 | L53N | -0.634 ± 0.18
75 | L53P | -0.998 ± 0.076
76 | L53K | -1 ± 0.098
77 | L53I | -0.09 ± 0.11
78 | T54D | -0.424 ± 0.081
79 | T54K | -0.16 ± 0.074
80 | T54W | -0.393 ± 0.061
81 | T54R | -0.256 ± 0.041
82 | T54P | -0.855 ± 0.057
83 | E58M | -0.125 ± 0.061
84 | S3A | 0.028 ± 0.04
85 | S3N | 0.224 ± 0.065
86 | S3H | 0.009 ± 0.068
87 | S3F | 0.251 ± 0.073
88 | S3K | 0.219 ± 0.058
89 | N27G | -0.137 ± 0.044
90 | N27K | 0.013 ± 0.057
91 | N27W | -0.209 ± 0.045
92 | N27A | -0.095 ± 0.048
93 | N27P | -0.476 ± 0.051
94 | S40H | -0.078 ± 0.072
95 | S40D | -0.076 ± 0.067
96 | S40Y | -0.187 ± 0.089

Row | Variant | abundance fitness
97 | S40T | -0.059 ± 0.053
98 | S33T | -0.006 ± 0.055
99 | S33E | -0.854 ± 0.061
100 | S33I | -0.452 ± 0.13
101 | M14Y | -0.19 ± 0.073
102 | M14E | -0.208 ± 0.047
103 | M14P | -0.898 ± 0.063
104 | M14Q | -0.243 ± 0.046
105 | M14K | -0.017 ± 0.053
106 | M14S | -0.219 ± 0.042
107 | M14F | -0.349 ± 0.071
108 | M14R | -0.314 ± 0.038
109 | L46Q | -0.052 ± 0.06
110 | L46P | -0.145 ± 0.06
111 | L46E | -0.037 ± 0.049
112 | L46H | -0.117 ± 0.085
113 | R1Q | 0.036 ± 0.11
114 | R1L | -0.071 ± 0.097
115 | R1I | 0.195 ± 0.11
116 | D68T | -0.278 ± 0.045
117 | D68R | -0.126 ± 0.036
118 | D68L | -0.564 ± 0.043
119 | D68A | -0.188 ± 0.044
120 | D68Q | -0.116 ± 0.054

Row | Variant | abundance fitness
121 | K62S | -0.194 ± 0.042
122 | K62N | -0.449 ± 0.094
123 | K62Y | -0.278 ± 0.098
124 | K62V | -0.127 ± 0.046
125 | R49E | -0.267 ± 0.056
126 | R49Y | -0.379 ± 0.13
127 | R49W | -0.202 ± 0.055
128 | G13P | -0.124 ± 0.046
129 | G13A | -0.072 ± 0.044
130 | G13C | -0.127 ± 0.056
131 | G13R | 0.07 ± 0.037
132 | G13V | -0.389 ± 0.047
133 | G13I | -0.039 ± 0.08
134 | V60I | 0.119 ± 0.073
135 | V60R | -0.016 ± 0.037
136 | V60G | -0.745 ± 0.044
137 | V60F | -0.82 ± 0.12
138 | V60Q | -0.586 ± 0.065
139 | K28R | 0.002 ± 0.036
140 | K28M | -0.085 ± 0.062
141 | K28E | -0.243 ± 0.065
142 | K28C | -0.597 ± 0.082
143 | K28N | -0.256 ± 0.16
144 | T2N | 0.109 ± 0.08

Row | Variant | abundance fitness
145 | T2W | -0.567 ± 0.06
146 | T2E | -0.025 ± 0.05
147 | T2P | -0.227 ± 0.052
148 | T2D | 0.003 ± 0.078
149 | M65V | 0.008 ± 0.046
150 | M65S | 0.025 ± 0.044
151 | M65I | -0.025 ± 0.075
152 | M65H | -0.066 ± 0.078
153 | M65D | 0.02 ± 0.072
154 | R9E | -0.094 ± 0.045
155 | R9V | -0.046 ± 0.04
156 | R9L | 0.076 ± 0.042
157 | R9A | -0.145 ± 0.04
158 | R9C | -0.132 ± 0.061
159 | R9D | -0.155 ± 0.059
160 | L17E | 0.074 ± 0.051
161 | L17N | -0.119 ± 0.087
162 | C35W | -1.19 ± 0.069
163 | C35D | -0.564 ± 0.079
164 | C35N | -0.914 ± 0.14
165 | V10D | -0.467 ± 0.064
166 | V10F | -0.132 ± 0.072
167 | V10I | -0.02 ± 0.062
